# Measured values taken from patent publication US20200040103A1 (Genentech, published 2020).
# Positions count from the first letter of the chain named.
# B1: 3-3F5 (antibody, V domains shown)
# VH: QSVKESEGGLFKPTDTLTLTCTVSGFSLNDYGVSWVRQAPGNGLEWIGAIGSSGVAWYANWAKGRSTITRNTNLNTVTLKMASLTAADTATYFCARDRDYGYRADDATSGMDLWGPGTLVTVSS
# VL: AYDMTQTPASVEAAVGGTVTIKCQASESIGNALAWYQQKPGQPPKLLIYDASDLASGVPSRFKGSGSGTQFTLTISGVECADAATYYCQQGDSHNNVDNIFGGGTEVVVK
# notes: Rabbit monoclonal; also called Chimeric 3-3F5
# B2: 10H3 (antibody, V domains shown)
# VH: QSVKESEGGLIKPTDTLTLTCTVSGFSLSTFAINWVRQAPGNGLEWIGAIGRGGSAYYASWAKSRSTITKNTNLNTVTLKMTRPTAADTATYFCARENAGSGWGELDIWGPGTLVTVSS
# VL: AYEMTQTPASVEVAVGGTVTINCQASESISSDLAWYQQKPGQRPKLLIYAASTLASGVPSRFKGSGSGTEFTLSISGVQCADAATYYCQQGYTWNNVDNVFGGGTEVVVK
# notes: also called KLK5.10H3 (complex sample)
# B3: 2-3F4 (antibody, V domains shown)
# VH: QSVEESRGGLIKPTDTLTLTCTASGFSLSNYGVSWVRQAPGNGLEYIGFIGYGGSTYYASWAKSRSTITRNTNLNTVTLQMTSLTAADTATYFCARLCGVDCADALDSWGPGTLVTVSS
# VL: AYYMTQTPASVEVAVGGTVTIKCQASEDIGSYCSWYQQKPGQPPKLLIYDASDLASGVPSRFKGSGSGTDFTLTISGVQCDDAATYYCQQDYTGNNVDNTFGGGSEVVVK
# B4: 14C8 (antibody, V domains shown)
# VH: EVQLVESGGGLVQPGRSLKLSCTASGFTFSDYNMAWVRQAPKGGLEWVTTISYDAGRTYYRDSVKGRFTISRDNAKRTLSLQMDSLRSEDTATYYCATGIFNYGTDYFDYWGQGVMVTVSS
# VL: DIQMTQSPASLSASLGETVTIQCRASEDIYSGLAWYQQKPGKSPQLLIYGATTLHDGVPSRFSGSGSGTQYSLKISSMHSEDEGIYFCHQGLSFPYTFGAGTKLELK
# B5: 14E12 (antibody, V domains shown)
# VH: EVQLVESGGGLVRPGRSLRLSCAASGFTFSDYYMAWVRQAPTKGLEWVASISYDGDTTYYRDSVKGRFTISRDNARSSLYLQMDSLRSDDTANYFCTTDGTIPAGSWFAYWGQGTLVTVSS
# VL: DIQMTQSPASLSASLGETVTIECLASKNIYRNLAWYQQKPGKSPQFLISDASRLQDGVPSRFTGSDSGSQYSLKINSLQSEDVATYFCQQYHDYPYTFGAGTKLELK
# B6: 8E11 (antibody, V domains shown)
# VH: QEQLEESGGDLVKPEGSLTLTCTASGFSFSSSYWICWVRQAPGKGLEWIACVYGLDVNIYYASWTKGRFTISKTSSTTVTLQMTSLTAADTATYFCARGGGSADFGFDLWGPGTLVTVSS
# VL: DVVMTQTASPVSAAVGGTVTIKCQASENIYSLLAWYQQKPGQPPKVLIYDASDLASGVPSRFKGSGSGTQFTLTISDLECADAATYYCQATAYGSSGNAFGGGTEVVVK
# B7: 8G10 (antibody, V domains shown)
# VH: QSLEESGGDLVKPEGSLTLTCTASGFSFSTSYWICWVRQAPGKGLEWIACVYGLDVNIYYASWTEGRFTISKTSSTTVTLQVTSLTAADTATYFCARGGGSADFGFDLWGPGTLVTVSS
# VL: B6 VL with A8P, S9A, P10S, A13E, A14P
# Molecular target: T1, human KLK1 (human, UniProt P06870 25-262, limits assumed)
# T1 sequence (P06870 25-262 limits assumed): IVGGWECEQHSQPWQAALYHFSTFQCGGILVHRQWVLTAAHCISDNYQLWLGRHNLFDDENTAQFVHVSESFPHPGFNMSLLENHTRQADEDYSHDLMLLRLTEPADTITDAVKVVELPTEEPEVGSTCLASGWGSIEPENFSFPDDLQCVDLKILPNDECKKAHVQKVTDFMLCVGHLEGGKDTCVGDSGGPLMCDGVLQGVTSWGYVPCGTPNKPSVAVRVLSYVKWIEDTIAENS
# Assay: column 7: KLK1 activity assay, 3 nM KLK1
row,IC50 [nM],Binder
1,> 100,B1
2,> 100,B2
3,> 100,B3

# Molecular target: T2, human KLK4 (human, UniProt Q9Y5K2 31-254, limits assumed)
# T2 sequence (Q9Y5K2 31-254 limits assumed): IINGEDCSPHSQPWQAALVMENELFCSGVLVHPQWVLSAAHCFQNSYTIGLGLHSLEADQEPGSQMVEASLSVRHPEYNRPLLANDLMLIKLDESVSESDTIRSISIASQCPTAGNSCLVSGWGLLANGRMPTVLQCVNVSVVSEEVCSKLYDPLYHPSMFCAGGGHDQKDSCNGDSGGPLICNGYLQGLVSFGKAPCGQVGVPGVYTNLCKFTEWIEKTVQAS
# Assay: column 8: KLK4 activity assay, 2 nM KLK4
# Procedure: (§1) KLK4 selectivity assay was performed at room temperature in a 384-well plate (black, low-volume round bottom, Corning #4514) with a final reaction volume of 15 μL. Inhibitor samples were diluted to 3× final concentration in assay buffer (75 mM Tris, pH 8.0, 150 mM NaCl, 0.01% TWEEN® 20). Reactions lacking inhibitor and reactions lacking enzyme were used as 100% and 0% activity controls, respectively. Inhibitor or control samples (5 μL) were added to the plate followed by 5 μL KLK4 (R&D Systems, 1719-SE, Lot MSY0116011, activated according to R&D systems protocol) in assay buffer at a final concentration of 2 nM. After 30 minutes, 5 μL of Boc-Val-Pro-Arg-AMC (Bachem I-1120, 31.3 mM stock solution in water) in assay buffer was added at a final concentration of 50 μM. […] Reaction rates (expressed as RFU/s) were calculated by linear regression in the range 510-3570 seconds. Reaction rates were normalized to the values of the 0% and 100% activity controls and fit with a 4-parameter equation to calculate IC₅₀ values. In the case of bivalent inhibitors, the raw IC₅₀ value was multiplied by two.
# In FIG. 8, the ability of Spink9.SRE.Fc, mAb1108 or 12 selected anti-KLK5 antibodies to inhibit the proteolysis of the substrate, Boc-VPR-AMC, by human KLK4 was assessed using an enzymatic assay. […] The results were expressed as a percentage of maximum KLK4 activity (% control).
row,IC50 [nM],Binder
1,> 100,B1
2,> 100,B2
3,> 100,B3

# Molecular target: T3, trypsin isolated from bovine pancreas (bovine, UniProt P00760 24-246)
# T3 construct: also called bovine trypsin
# T3 sequence (P00760 24-246): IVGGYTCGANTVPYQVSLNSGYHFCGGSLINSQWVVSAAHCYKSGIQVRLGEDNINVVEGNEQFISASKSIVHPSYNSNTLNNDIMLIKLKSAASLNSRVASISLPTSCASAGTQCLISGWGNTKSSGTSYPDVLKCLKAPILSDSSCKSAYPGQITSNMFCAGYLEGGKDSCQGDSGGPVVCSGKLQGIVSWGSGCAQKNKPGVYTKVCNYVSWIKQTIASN
# Assay: column 9: trypsin activity assay, 0.25 nM trypsin
# Procedure: 0.25 nM trypsin isolated from bovine pancreas and 0.19-100 nM anti-KLK5 inhibitors were pre-incubated for 30 minutes prior to addition of 50 μM Boc-VPR-AMC. […] The results for the KLK5 inhibitors are depicted as follows: FIG. 9A: Spink9.SRE.Fc, FIG. 9B: mAb1108, FIG. 9C: 3-3F5, FIG. 9D: 10C8, FIG. 9E: 9B6, FIG. 9F: 9F2, FIG. 9G: 9H3, FIG. 9H: 9H5, FIG. 9I: 8B7, FIG. 9J: 2B11, FIG. 9K: 8F5, FIG. 9L: 10C5, FIG. 9M: 10H3 and FIG. 9N: 2-3F4.
# as §1, with “Trypsin selectivity” for “KLK4 selectivity”, “μL trypsin (Sigma Aldrich T8003,” for “μL KLK4 (R&D Systems, 1719-SE,”, “Lot SLBM2321V, 42.0 μM stock solution in 1 mM HCl)” for “Lot MSY0116011, activated according to R&D systems protocol)”, “of 0.25” for “of 2”, “range 204-3570” for “range 510-3570”
row,IC50 [nM],Binder
1,> 100,B1
2,> 100,B2
3,> 100,B3

# Molecular target: T4, human KLK7 (human, UniProt P49862 30-253, limits assumed)
# T4 sequence (P49862 30-253 limits assumed): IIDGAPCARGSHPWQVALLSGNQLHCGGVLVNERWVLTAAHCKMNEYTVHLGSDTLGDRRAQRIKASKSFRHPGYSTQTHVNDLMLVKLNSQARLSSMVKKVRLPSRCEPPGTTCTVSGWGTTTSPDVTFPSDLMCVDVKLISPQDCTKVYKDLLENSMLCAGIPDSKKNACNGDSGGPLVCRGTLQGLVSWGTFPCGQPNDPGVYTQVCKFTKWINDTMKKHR
# Assay: column 6: KLK7 activity assay, 5 nM KLK7
# Procedure: KLK7 selectivity assay was performed at room temperature in a 384-well plate (black, low-volume round bottom, Corning #4514) with a final reaction volume of 15 μL. Inhibitor samples were diluted to 3× final concentration in assay buffer (75 mM Tris, pH 8.0, 150 mM NaCl, 0.01% TWEEN® 20). Reactions lacking inhibitor and reactions lacking enzyme were used as 100% and 0% activity controls, respectively. Inhibitor or control samples (5 μL) were added to the plate followed by 5 μL KLK7 (Genentech) in assay buffer at a final concentration of 5 nM. After 30 min, 5 μL of Suc-Leu-Leu-Val-Tyr-AMC (Bachem I-1395, 25 mM stock solution in water) in assay buffer was added at a final concentration of 100 μM. […] Reaction rates (expressed as RFU/s) were calculated by linear regression in the range 2040-4488 seconds. Reaction rates were normalized to the values of the 0% and 100% activity controls and fit with a 4-parameter equation to calculate IC₅₀ values. […]
row,IC50 [nM],Binder
1,> 100,B1
2,> 100,B2
3,> 100,B3

# Molecular target: T2, human KLK4
# Assay: array SPR imaging, antibody immobilized
# Procedure: (§2) An array-based SPR imaging system (Carterra™, USA) was used to epitope bin a panel of 288 monoclonal antibodies. Purified antibodies were diluted at 10 μg/ml in 10 mM sodium acetate buffer pH 4.5. Using amine coupling, antibodies were directly immobilized onto a SPR sensorprism CMD 200M chip (XanTec Bioanalytics GmbH, Germany) using a Continuous Flow Microspotter (Carterra™, USA) to create an array of 288 antibodies. For analysis, the IBIS MX96 SPRi (Carterra™, USA) was used to evaluate analytes binding to the immobilized ligands. For kinetic analyses, human, cyno and murine KLK5 were injected for 3 minutes from 0 to 300 nM at 3-fold dilution followed by a dissociation period of 10 minutes. Human KLK1, KLK4, and KLK7 were injected at a single concentration of 500 nM to ensure the specificities of the antibodies. For epitope binning against SPINK9-Fc-SRE, human KLK5 was first injected for 4 minute at 100 nM and was followed by a second 4 minute injection of SPINK9-Fc-SRE at 10 μg/ml. The surface was regenerated with 10 mM glycine pH1.5 between cycles. The experiment was performed at 25° C. in a running buffer of HBS-T buffer (0.01M HEPES pH 7.4, 0.15M NaCl, 0.05% surfactant P20). The kinetic data was processed using Scrubber 2.0 (BioLogic™ Software) and the epitope binning data was processed using Wasatch binning software tool (Carterra™, USA).
row,binding result,Binder
1,no binding (tested: 500 nM),B4
2,no binding (tested: 500 nM),B5
3,no binding (tested: 500 nM),B6
4,no binding (tested: 500 nM),B7

# Molecular target: T1, human KLK1
# Assay: array SPR imaging, antibody immobilized
# Procedure: as §2
row,binding result,Binder
1,no binding (tested: 500 nM),B4
2,no binding (tested: 500 nM),B5
3,no binding (tested: 500 nM),B6
4,no binding (tested: 500 nM),B7

# Molecular target: T4, human KLK7
# Assay: array SPR imaging, antibody immobilized
# Procedure: as §2
row,binding result,Binder
1,no binding (tested: 500 nM),B4
2,no binding (tested: 500 nM),B5
3,no binding (tested: 500 nM),B6
4,no binding (tested: 500 nM),B7
